From US20180171313A1 (NOVOZYMES A S, published 2018) come the findings set out here.

The assay addresses T1, chaperone fusion protein (Chap-MBP): 6x histidine tag, E. coli maltose binding protein, linker and mature G. … (Gallaecimonas pentaromativorans …).
T1 construct: also called LIF
Put plainly: lipase refolded with the chaperone fusion protein, examined as the complex by differential scanning calorimetry. Here is the method:
Sample- and reference-solutions (approx. 0.2 ml) were loaded into the calorimeter (reference: buffer without enzyme) from storage conditions at 10° C. and thermally pre-equilibrated for 20 minutes at 20° C. prior to DSC scan from 20° C. to 100° C. Denaturation temperatures were determined at an accuracy of approximately +/−1° C.
In complex with the chaperone fusion protein, the thermostability of the lipase was high with a Td value in the range of 79.9-94.1° C. In a non-parallel trial under similar experimental conditions the thermostability of Lipolase was measured to have a Td value of 77.0° C.
On the technique in general: DSC measures the heat that a sample takes up or gives off during a temperature scan.

B1: Gallaecimonas pentaromativorans lipase (lipase of the invention), mature part (enzyme)
chain: SGYTQTKYPIVLVHGLFGFDSLAGVDYWYGIPQALSQDGATVYVVNVSAANSTEVRGEQLLVQIDNILALTGAKKVNLIGHSHGGPTARYAASISPGKVASVTSVGGVNWGSRFADALRGTIAPGSVSESVIGAAANAFSSIIEFLSGTPADPQDSVAALNALTTAGSLAFNASYPEGMPSQYCGQGQMQAANGVYYFSWSGASPLTNVLDVTDAALGLTSLVFGESNDGLVSSCSSHLGKVIRDDYAMNHLDEVNQTFGLVSLFETNPKTLYRNQANRLKNLGL
notes: The forward primer adds an ATG start codon through its NdeI site; also called G. pentaromativorans lipase
Turning to B1, the binding result was “binds”.
